Experiment [1] has as its target ATB’g (Arabidopsis PP2A B subunit) (Arabidopsis thaliana) (UniProt Q8RW96). Put plainly: ITC.
Experiment [2] has as its target PSR2 (untagged, purified from E. coli) (P. sojae) (UniProt E0W4V5). Briefly: ITC. (In general: ITC needs no label: the signal is the heat of the interaction.)
The target of experiment [3] is T1, PSR2 (untagged, purified from E. coli) (P. sojae, UniProt E0W4V5 18-670).
T1 sequence: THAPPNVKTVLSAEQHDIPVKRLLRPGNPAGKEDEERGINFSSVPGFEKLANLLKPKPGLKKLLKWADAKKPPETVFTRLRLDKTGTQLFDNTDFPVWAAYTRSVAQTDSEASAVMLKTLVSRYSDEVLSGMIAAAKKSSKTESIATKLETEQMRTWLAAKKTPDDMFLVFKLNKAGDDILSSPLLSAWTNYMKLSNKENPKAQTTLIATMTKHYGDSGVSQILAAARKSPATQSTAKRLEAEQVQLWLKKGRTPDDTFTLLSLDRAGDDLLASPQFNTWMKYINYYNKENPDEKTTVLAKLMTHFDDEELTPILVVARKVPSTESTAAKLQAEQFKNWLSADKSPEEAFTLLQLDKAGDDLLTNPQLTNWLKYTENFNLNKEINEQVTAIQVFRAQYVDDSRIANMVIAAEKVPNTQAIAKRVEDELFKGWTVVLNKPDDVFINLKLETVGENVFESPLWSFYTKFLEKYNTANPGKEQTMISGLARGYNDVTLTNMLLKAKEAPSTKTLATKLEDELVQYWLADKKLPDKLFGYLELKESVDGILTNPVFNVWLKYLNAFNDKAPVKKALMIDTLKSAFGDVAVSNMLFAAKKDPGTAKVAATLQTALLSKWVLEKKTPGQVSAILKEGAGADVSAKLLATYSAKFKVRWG
Briefly: pull-down.

ATB’g (Arabidopsis PP2A B subunit) (Arabidopsis thaliana), sequence (Q8RW96 whole entry): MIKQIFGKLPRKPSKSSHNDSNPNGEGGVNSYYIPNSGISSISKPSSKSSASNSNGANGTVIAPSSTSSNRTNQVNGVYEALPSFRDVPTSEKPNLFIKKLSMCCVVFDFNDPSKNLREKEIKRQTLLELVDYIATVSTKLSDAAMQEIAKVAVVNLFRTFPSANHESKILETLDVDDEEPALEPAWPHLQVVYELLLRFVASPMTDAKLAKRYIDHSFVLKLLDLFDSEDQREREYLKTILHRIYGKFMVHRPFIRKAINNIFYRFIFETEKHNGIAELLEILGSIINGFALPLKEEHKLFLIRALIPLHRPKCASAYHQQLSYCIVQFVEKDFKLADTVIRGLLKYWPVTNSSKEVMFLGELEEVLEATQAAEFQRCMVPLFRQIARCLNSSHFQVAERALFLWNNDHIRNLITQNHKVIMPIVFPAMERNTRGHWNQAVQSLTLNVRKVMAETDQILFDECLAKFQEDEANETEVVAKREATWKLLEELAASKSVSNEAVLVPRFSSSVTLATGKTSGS

Turning to “6×His-PDF1 (full-length PDF1, purified from E. coli) (from UniProt Q9S728 24-306) (natural protein)”, the dissociation constant Kd in experiment [1] came out at 3330 nM; in experiment [2] it was 350 nM.

B1: RCN1 (purified from E. coli) (natural protein)
chain: MAMVDEPLYPIAVLIDELKNDDIQLRLNSIRRLSTIARALGEERTRKELIPFLSENSDDDDEVLLAMAEELGVFIPFVGGIEFAHVLLPPLESLCTVEETCVREKAVESLCKIGSQMKENDLVESFVPLVKRLAGGEWFAARVSACGIFHVAYQGCTDVLKTELRATYSQLCKDDMPMVRRAAASNLGKFATTVESTFLIAEIMTMFDDLTKDDQDSVRLLAVEGCAALGKLLEPQDCVARILPVIVNFSQDKSWRVRYMVANQLYELCEAVGPDCTRTDLVPAYVRLLRDNEAEVRIAAAGKVTKFCRLLNPELAIQHILPCVKELSSDSSQHVRSALASVIMGMAPILGKDSTIEHLLPIFLSLLKDEFPDVRLNIISKLDQVNQVIGIDLLSQSLLPAIVELAEDRHWRVRLAIIEYVPLLASQLGIGFFDDKLGALCMQWLQDKVYSIREAAANNLKRLAEEFGPEWAMQHLVPQVLDMVNNPHYLHRMMVLRAISLMAPVMGSEITCSKFLPVVVEASKDRVPNIKFNVAKLLQSLIPIVDQSVVDKTIRQCLVDLSEDPDVDVRYFANQALNSIDGSTAAQS
Regarding B1, the binding result in experiment [3] is “binds”.

For orientation: Kd means the free concentration of one partner at which half of the binding sites on the other are occupied at equilibrium, for simple one-to-one binding.

The record behind these values is publication doi:10.1101/2023.05.05.539533 (bioRxiv, 2023).
